This passage reports Kd results from patent US20160319361, “OLIGONUCLEOTIDE PROBES AND USES THEREOF” (CARIS LIFE SCIENCES SWITZERLAND HOLDINGS GMBH, published 2016).

This series has as its target T1, EpCAM (UniProt P16422 P16422:24-265).
T1 sequence: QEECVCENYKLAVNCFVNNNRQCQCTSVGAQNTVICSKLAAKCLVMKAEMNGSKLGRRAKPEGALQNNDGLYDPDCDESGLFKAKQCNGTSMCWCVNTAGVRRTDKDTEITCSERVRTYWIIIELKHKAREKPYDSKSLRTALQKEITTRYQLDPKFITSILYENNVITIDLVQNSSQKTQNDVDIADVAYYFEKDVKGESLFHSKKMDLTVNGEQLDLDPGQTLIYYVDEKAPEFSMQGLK
The series can be described thus: SPR; immobilized biotinylated aptamer, EpCAM analyte; HBS-EP+ buffer. The following applies: label: biotin via tail. As to the method:
FIG. 5 illustrates results from a binding assay showing the binding affinity of an exemplary aptamer (Aptamer ID BTX176881 (SEQ ID NO: 3)) to the target EpCAM protein at various target concentrations. The aptamer to be tested is fixed to a substrate using a biotin tail and is incubated with various concentrations of target (125, 250 and 500 nM). The test is performed on a surface plasmon resonance machine (SPR). The SPR machine detects association and disassociation of the aptamer and the target. Target is applied until the association and disassociation events are equal, resulting in a plateau of the curve. The equations describing the curve at each concentration can then be used to calculate the KD of the aptamer (see Table 5).
The Biacore 200 control software is programmed with the following conditions: Solution: HBS-EP+ Buffer; Number of cycles: 3; Contact time: 120s; Flow rate: 30 μl/min; Dissociation time: 300s; Solution: Glycine-HCl pH 2.5; Contact time: 120s; Flow rate: 20 μl/min; Stabilization period: 0s. The binding affinities of these aptamers are then measured using the SPR assay above, or an alternate in vitro assay assessing the aptamer for a desired function.
A general note: Surface plasmon resonance follows binding to a sensor surface in real time, without labels.

On to CCCGATTTTGGTACCGCGGGGATCCGCGTCTG (ssDNA) [BTX176881], for which the Kd (usually the constant that tells how readily two partners part at equilibrium) amounted to 8.4 nM.
